The experiment deals with AP2α/σ2 hemicomplex, both subunits fused to the Venus C-terminal fragment and V5 (UniProt O94973). The experiment can be described thus: split reporter (BiFC, NanoBiT); HEK293 cells co-transfected with AP2α-Venus-C-V5, AP2σ2-Venus-C-V5 and Nef-HA-Venus-N (400 ng each); fixed the next day in 2% PFA; Venus fluorescence (FITC channel) read by flow cytometry as MFI. In general terms: In flow cytometry, cells or beads pass a laser one at a time.
Sequence of UniProt O94973 (O94973 whole entry, chain 1 of 2, the tested form may be a part): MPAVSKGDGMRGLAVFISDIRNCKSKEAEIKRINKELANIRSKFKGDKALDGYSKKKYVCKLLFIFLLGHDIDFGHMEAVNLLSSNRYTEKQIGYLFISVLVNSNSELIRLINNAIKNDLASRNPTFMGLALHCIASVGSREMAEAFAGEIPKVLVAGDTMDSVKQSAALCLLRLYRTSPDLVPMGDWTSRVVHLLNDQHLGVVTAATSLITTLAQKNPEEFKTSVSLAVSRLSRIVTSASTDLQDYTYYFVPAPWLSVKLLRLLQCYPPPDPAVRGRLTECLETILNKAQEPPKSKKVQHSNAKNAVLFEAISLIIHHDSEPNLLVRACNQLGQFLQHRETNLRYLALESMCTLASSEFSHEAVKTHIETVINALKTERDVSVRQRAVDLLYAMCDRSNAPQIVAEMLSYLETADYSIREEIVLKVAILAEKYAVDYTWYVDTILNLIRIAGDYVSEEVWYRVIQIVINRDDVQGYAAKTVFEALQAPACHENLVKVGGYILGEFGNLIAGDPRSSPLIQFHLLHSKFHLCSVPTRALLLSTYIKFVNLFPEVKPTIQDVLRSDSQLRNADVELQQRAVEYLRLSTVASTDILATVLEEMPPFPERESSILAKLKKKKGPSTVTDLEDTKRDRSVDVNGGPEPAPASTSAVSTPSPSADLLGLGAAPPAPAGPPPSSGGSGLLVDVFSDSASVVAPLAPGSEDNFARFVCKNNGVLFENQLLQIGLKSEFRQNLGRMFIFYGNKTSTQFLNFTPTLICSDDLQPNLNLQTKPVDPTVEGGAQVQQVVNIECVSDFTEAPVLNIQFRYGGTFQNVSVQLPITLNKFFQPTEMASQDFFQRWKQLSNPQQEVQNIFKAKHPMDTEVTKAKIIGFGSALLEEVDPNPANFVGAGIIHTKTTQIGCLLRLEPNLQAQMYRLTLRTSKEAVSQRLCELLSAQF
Sequence of UniProt O94973 (P53680 whole entry, chain 2 of 2, further chain, the tested form may be a part): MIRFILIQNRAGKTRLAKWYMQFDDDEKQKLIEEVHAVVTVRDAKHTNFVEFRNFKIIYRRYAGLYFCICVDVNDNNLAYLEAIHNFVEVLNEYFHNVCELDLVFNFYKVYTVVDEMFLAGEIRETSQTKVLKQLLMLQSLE

Take “Nef protein from the LAI isolate lacking the leucine-based sorting motif (LL/AA) fused to HA and the N-terminal fragment of Venus (from UniProt P03406 1-206) (natural protein)”: the decrease of BiFC fluorescence against Nef^LAI is 50%.

The values above are taken from publication PMC10057511.
